# How the values were obtained:
# Assay in all cases: BLI
# [1] = biological target: T1, MDA5 WT (dL2) del646-663 (Mus musculus) (UniProt Q8R5F7); conditions: 3'-biotin, BLI and EMSA: 20 mM Hepes pH 7.4, 0.15 M KCl, 1 mM TCEP, EMSA 15 min at 4 C with 1 uM protein and 100 ng nucleic acid, BLI with 0.1 or 1 uM protein …
# T1 sequence: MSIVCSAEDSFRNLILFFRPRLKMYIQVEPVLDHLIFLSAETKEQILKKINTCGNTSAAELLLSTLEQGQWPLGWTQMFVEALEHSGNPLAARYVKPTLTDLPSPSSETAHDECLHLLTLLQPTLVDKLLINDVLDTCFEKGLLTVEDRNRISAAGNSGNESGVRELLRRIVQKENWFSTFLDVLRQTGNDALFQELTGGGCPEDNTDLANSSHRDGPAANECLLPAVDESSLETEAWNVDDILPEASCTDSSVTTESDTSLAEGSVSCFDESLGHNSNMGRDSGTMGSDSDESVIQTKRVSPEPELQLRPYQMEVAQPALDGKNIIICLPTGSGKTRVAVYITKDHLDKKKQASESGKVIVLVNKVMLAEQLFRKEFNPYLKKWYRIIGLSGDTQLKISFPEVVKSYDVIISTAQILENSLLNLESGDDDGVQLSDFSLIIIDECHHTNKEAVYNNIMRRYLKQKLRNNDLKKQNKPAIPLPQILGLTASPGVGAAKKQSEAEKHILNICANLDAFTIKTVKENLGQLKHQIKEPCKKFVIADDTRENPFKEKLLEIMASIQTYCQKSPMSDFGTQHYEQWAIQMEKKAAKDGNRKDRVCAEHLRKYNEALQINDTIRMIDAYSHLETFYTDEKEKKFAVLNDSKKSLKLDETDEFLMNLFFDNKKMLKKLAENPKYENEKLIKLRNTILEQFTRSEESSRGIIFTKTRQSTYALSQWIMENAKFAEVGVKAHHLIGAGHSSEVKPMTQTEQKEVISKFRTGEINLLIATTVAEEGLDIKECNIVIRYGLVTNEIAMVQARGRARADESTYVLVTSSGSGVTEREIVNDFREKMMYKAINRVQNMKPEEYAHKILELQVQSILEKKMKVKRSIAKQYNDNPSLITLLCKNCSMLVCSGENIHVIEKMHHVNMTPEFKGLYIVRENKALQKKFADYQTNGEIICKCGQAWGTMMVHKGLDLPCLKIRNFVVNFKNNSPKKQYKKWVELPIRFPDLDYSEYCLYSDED
# [2] = biological target: MDA5 WT (dL2);LGP2 WT del646-663 (Mus musculus;Mus musculus) (UniProt Q8R5F7); conditions: MDA5-LGP2 mixture, apparent Kd; 3'-biotin; BLI and EMSA: 20 mM Hepes pH 7.4, 0.15 M KCl, 1 mM TCEP; EMSA 15 min at 4 C with 1 uM protein and 100 ng nucleic …; BLI with 0.1 or 1 uM protein, temperature
# [3] = system: LGP2 K30G (Mus musculus); conditions: no ATP stated; 3'-biotin; BLI and EMSA: 20 mM Hepes pH 7.4, 0.15 M KCl, 1 mM TCEP; EMSA 15 min at 4 C with 1 uM protein and 100 ng nucleic acid; BLI with 0.1 or 1 uM protein …
# [4] = system: LGP2 WT (Mus musculus); conditions: 3'-biotin, BLI and EMSA: 20 mM Hepes pH 7.4, 0.15 M KCl, 1 mM TCEP, EMSA 15 min at 4 C with 1 uM protein and 100 ng nucleic acid, BLI with 0.1 or 1 uM protein …
# [5] = biological target: MDA5 WT (dL2);LGP2 K30G del646-663 (Mus musculus;Mus musculus) (UniProt Q8R5F7); conditions: MDA5-LGP2 K30G mixture; 3'-biotin; BLI and EMSA: 20 mM Hepes pH 7.4, 0.15 M KCl, 1 mM TCEP; EMSA 15 min at 4 C with 1 uM protein and 100 ng nucleic acid; BLI with 0.1 or 1 uM protein …
Substance,Kd [1] [µM],Kd [2] [µM],Kd [3] [µM],Kd [4] [µM],Kd ([4]; no ATP stated) [µM],Kd ([1]; no ATP stated) [µM],Kd [5] [µM]
"300-bp dsRNA, 3'-biotin",1.31,–,–,–,–,–,–
"1-kb dsRNA, 3'-biotin",–,0.52,1.3,0.048,0.07,1.3,–
"40-nt ssRNA, 3'-biotin",2.6,–,–,–,–,–,1.84
